Assays:
[1] = molecular target: mouse TfR protein (mouse) (UniProt Q62351)
[2] = molecular target: Aβ1-40 monomers (UniProt P05067); experiment: ELISA; sandwich ELISA; 1 nM Aβ1-40 monomers or 1 nM Aβ1-42 aggregates held by coated rabbit polyclonal antibodies (C-terminal of Aβ, or Aβ1-42); serial dilutions of the recombinant proteins in 0.1% BSA, 0.05% Tween-20 in PBS, 2 h at RT; goat anti-mouse HRP
[3] = molecular target: Aβ1-42 aggregates (UniProt P05067); experiment: as above
Sequence of Aβ1-42 aggregates (P05067 672-713): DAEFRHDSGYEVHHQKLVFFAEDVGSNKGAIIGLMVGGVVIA

Sequence of Aβ1-40 monomers (P05067 672-711): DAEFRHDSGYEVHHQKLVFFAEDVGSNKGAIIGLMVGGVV

- brain uptake (%ID per gram brain tissue) 2 h after intravenous injection of the 125I-labelled protein (0.05 mg/kg) in tg-ArcSwe mice, against sNEP without scFv8D3 [1]: 20 fold
- fold weaker binding than the 3D6 antibody control [2]: 50 fold
- fold weaker binding than the 3D6 antibody control [3]: 100 fold
Substance: sNEP-scFc-scFv8D3 (Fc fusion)

From PMC9720954
